Assay results: patent publication US20230192789A1, “STRUCTURALLY-STABILIZED AND HDMX-SELECTIVE P53 PEPTIDES AND USES THEREOF” (Dana-Farber Cancer Institute, Inc., priority 2020, published 2023)
Bridges are numbered along the chain shown (N, C = ends). [ ]: non-standard residue; d: D form. The star is where a group is joined. Biotin = O=C1N[C@H]2[C@H](CS[C@H]2CCCCC(=O)*)N1; R8 = C=CCCCCCC[C@@](C)(N)C(=O)O; S5 = C=CCCC[C@](C)(N)C(=O)O

B1: ATSP-7041 B26K (peptide)
peptide: Biotin-LTF[R8]EYWAQK[S5]SAA-NH2
modifications: staple 4-11
SMILES: CC(C)C[C@H](NC(=O)CCCC[C@@H]1SC[C@@H]2NC(=O)N[C@@H]21)C(=O)N[C@H](C(=O)N[C@@H](Cc1ccccc1)C(=O)N[C@]1(C)CCCCCCC=CCCC[C@@](C)(C(=O)N[C@@H](CO)C(=O)N[C@@H](C)C(=O)N[C@@H](C)C(N)=O)NC(=O)[C@H](CCCCN)NC(=O)[C@H](CCC(N)=O)NC(=O)[C@H](C)NC(=O)[C@H](Cc2c[nH]c3ccccc23)NC(=O)[C@H](Cc2ccc(O)cc2)NC(=O)[C@H](CCC(=O)O)NC1=O)[C@@H](C)O
B2: ATSP-7041 B26N (peptide)
peptide: Biotin-LTF[R8]EYWAQN[S5]SAA-NH2
modifications: staple 4-11
SMILES: CC(C)C[C@H](NC(=O)CCCC[C@@H]1SC[C@@H]2NC(=O)N[C@@H]21)C(=O)N[C@H](C(=O)N[C@@H](Cc1ccccc1)C(=O)N[C@]1(C)CCCCCCC=CCCC[C@@](C)(C(=O)N[C@@H](CO)C(=O)N[C@@H](C)C(=O)N[C@@H](C)C(N)=O)NC(=O)[C@H](CC(N)=O)NC(=O)[C@H](CCC(N)=O)NC(=O)[C@H](C)NC(=O)[C@H](Cc2c[nH]c3ccccc23)NC(=O)[C@H](Cc2ccc(O)cc2)NC(=O)[C@H](CCC(=O)O)NC1=O)[C@@H](C)O
B3: ATSP-7041 B26S (peptide)
peptide: Biotin-LTF[R8]EYWAQS[S5]SAA-NH2
modifications: staple 4-11
SMILES: CC(C)C[C@H](NC(=O)CCCC[C@@H]1SC[C@@H]2NC(=O)N[C@@H]21)C(=O)N[C@H](C(=O)N[C@@H](Cc1ccccc1)C(=O)N[C@]1(C)CCCCCCC=CCCC[C@@](C)(C(=O)N[C@@H](CO)C(=O)N[C@@H](C)C(=O)N[C@@H](C)C(N)=O)NC(=O)[C@H](CO)NC(=O)[C@H](CCC(N)=O)NC(=O)[C@H](C)NC(=O)[C@H](Cc2c[nH]c3ccccc23)NC(=O)[C@H](Cc2ccc(O)cc2)NC(=O)[C@H](CCC(=O)O)NC1=O)[C@@H](C)O
B4: ATSP-7041 B26V (peptide)
peptide: Biotin-LTF[R8]EYWAQV[S5]SAA-NH2
modifications: staple 4-11
SMILES: CC(C)C[C@H](NC(=O)CCCC[C@@H]1SC[C@@H]2NC(=O)N[C@@H]21)C(=O)N[C@H](C(=O)N[C@@H](Cc1ccccc1)C(=O)N[C@]1(C)CCCCCCC=CCCC[C@@](C)(C(=O)N[C@@H](CO)C(=O)N[C@@H](C)C(=O)N[C@@H](C)C(N)=O)NC(=O)[C@H](C(C)C)NC(=O)[C@H](CCC(N)=O)NC(=O)[C@H](C)NC(=O)[C@H](Cc2c[nH]c3ccccc23)NC(=O)[C@H](Cc2ccc(O)cc2)NC(=O)[C@H](CCC(=O)O)NC1=O)[C@@H](C)O
B5: ATSP-7041 B26P (peptide)
peptide: Biotin-LTF[R8]EYWAQP[S5]SAA-NH2
modifications: staple 4-11
SMILES: CC(C)C[C@H](NC(=O)CCCC[C@@H]1SC[C@@H]2NC(=O)N[C@@H]21)C(=O)N[C@H](C(=O)N[C@@H](Cc1ccccc1)C(=O)N[C@]1(C)CCCCCCC=CCCC[C@@](C)(C(=O)N[C@@H](CO)C(=O)N[C@@H](C)C(=O)N[C@@H](C)C(N)=O)NC(=O)[C@@H]2CCCN2C(=O)[C@H](CCC(N)=O)NC(=O)[C@H](C)NC(=O)[C@H](Cc2c[nH]c3ccccc23)NC(=O)[C@H](Cc2ccc(O)cc2)NC(=O)[C@H](CCC(=O)O)NC1=O)[C@@H](C)O
B6: ATSP-7041 B26R (peptide)
peptide: Biotin-LTF[R8]EYWAQR[S5]SAA-NH2
modifications: staple 4-11
SMILES: CC(C)C[C@H](NC(=O)CCCC[C@@H]1SC[C@@H]2NC(=O)N[C@@H]21)C(=O)N[C@H](C(=O)N[C@@H](Cc1ccccc1)C(=O)N[C@]1(C)CCCCCCC=CCCC[C@@](C)(C(=O)N[C@@H](CO)C(=O)N[C@@H](C)C(=O)N[C@@H](C)C(N)=O)NC(=O)[C@H](CCCNC(=N)N)NC(=O)[C@H](CCC(N)=O)NC(=O)[C@H](C)NC(=O)[C@H](Cc2c[nH]c3ccccc23)NC(=O)[C@H](Cc2ccc(O)cc2)NC(=O)[C@H](CCC(=O)O)NC1=O)[C@@H](C)O
B7: ATSP-7041 B26W (peptide)
peptide: Biotin-LTF[R8]EYWAQW[S5]SAA-NH2
modifications: staple 4-11
SMILES: CC(C)C[C@H](NC(=O)CCCC[C@@H]1SC[C@@H]2NC(=O)N[C@@H]21)C(=O)N[C@H](C(=O)N[C@@H](Cc1ccccc1)C(=O)N[C@]1(C)CCCCCCC=CCCC[C@@](C)(C(=O)N[C@@H](CO)C(=O)N[C@@H](C)C(=O)N[C@@H](C)C(N)=O)NC(=O)[C@H](Cc2c[nH]c3ccccc23)NC(=O)[C@H](CCC(N)=O)NC(=O)[C@H](C)NC(=O)[C@H](Cc2c[nH]c3ccccc23)NC(=O)[C@H](Cc2ccc(O)cc2)NC(=O)[C@H](CCC(=O)O)NC1=O)[C@@H](C)O
B8: ATSP-7041 B26T (peptide)
peptide: Biotin-LTF[R8]EYWAQT[S5]SAA-NH2
modifications: staple 4-11
SMILES: CC(C)C[C@H](NC(=O)CCCC[C@@H]1SC[C@@H]2NC(=O)N[C@@H]21)C(=O)N[C@H](C(=O)N[C@@H](Cc1ccccc1)C(=O)N[C@]1(C)CCCCCCC=CCCC[C@@](C)(C(=O)N[C@@H](CO)C(=O)N[C@@H](C)C(=O)N[C@@H](C)C(N)=O)NC(=O)[C@H]([C@@H](C)O)NC(=O)[C@H](CCC(N)=O)NC(=O)[C@H](C)NC(=O)[C@H](Cc2c[nH]c3ccccc23)NC(=O)[C@H](Cc2ccc(O)cc2)NC(=O)[C@H](CCC(=O)O)NC1=O)[C@@H](C)O
B9: ATSP-7041 B26Q (peptide)
peptide: Biotin-LTF[R8]EYWAQQ[S5]SAA-NH2
modifications: staple 4-11
SMILES: CC(C)C[C@H](NC(=O)CCCC[C@@H]1SC[C@@H]2NC(=O)N[C@@H]21)C(=O)N[C@H](C(=O)N[C@@H](Cc1ccccc1)C(=O)N[C@]1(C)CCCCCCC=CCCC[C@@](C)(C(=O)N[C@@H](CO)C(=O)N[C@@H](C)C(=O)N[C@@H](C)C(N)=O)NC(=O)[C@H](CCC(N)=O)NC(=O)[C@H](CCC(N)=O)NC(=O)[C@H](C)NC(=O)[C@H](Cc2c[nH]c3ccccc23)NC(=O)[C@H](Cc2ccc(O)cc2)NC(=O)[C@H](CCC(=O)O)NC1=O)[C@@H](C)O
B10: ATSP-7041 B26Y (peptide)
peptide: Biotin-LTF[R8]EYWAQY[S5]SAA-NH2
modifications: staple 4-11
SMILES: CC(C)C[C@H](NC(=O)CCCC[C@@H]1SC[C@@H]2NC(=O)N[C@@H]21)C(=O)N[C@H](C(=O)N[C@@H](Cc1ccccc1)C(=O)N[C@]1(C)CCCCCCC=CCCC[C@@](C)(C(=O)N[C@@H](CO)C(=O)N[C@@H](C)C(=O)N[C@@H](C)C(N)=O)NC(=O)[C@H](Cc2ccc(O)cc2)NC(=O)[C@H](CCC(N)=O)NC(=O)[C@H](C)NC(=O)[C@H](Cc2c[nH]c3ccccc23)NC(=O)[C@H](Cc2ccc(O)cc2)NC(=O)[C@H](CCC(=O)O)NC1=O)[C@@H](C)O

Target: T1, recombinant HDM2 (amino acids 17-125 of SEQ ID NO:103) (human, UniProt Q00987 17-125)
T1 construct: also called MDM2; not shown: thrombin cleavage site (pET28a vector)
T1 sequence (Q00987 other isoform, or with tags, fused parts or gaps): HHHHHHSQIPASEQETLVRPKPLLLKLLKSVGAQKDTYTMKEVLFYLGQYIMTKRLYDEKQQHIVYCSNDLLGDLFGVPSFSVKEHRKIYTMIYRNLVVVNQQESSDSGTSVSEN
Experiment: streptavidin pull-down of biotinylated peptide with recombinant HDM2 and HDMX (1:1 mixture per paragraph 301), western blot

Binding result, no binding:
B1
B2
B3
B4
B5
B6
B7
B8
B9
B10
